Assay results: the supplement of paper PMC11246515
± gives the standard deviation of the averaged measurements.

Assay: total protein half-life in vivo (active degradation + dilution); higher = more stable protein
[1] = E. coli NCM3722 delta-clpP delta-lon delta-hslV, growth: N-lim chemostat, doubling time 6 h
[2] = E. coli NCM3722 delta-clpP, growth: N-lim chemostat, doubling time 6 h
[3] = E. coli NCM3722 delta-hslV, growth: N-lim chemostat, doubling time 6 h
[4] = E. coli NCM3722 delta-lon, growth: N-lim chemostat, doubling time 6 h
[5] = E. coli NCM3722 delta-smpB, growth: N-lim chemostat, doubling time 6 h
[6] = wild type E. coli NCM3722, growth: C-lim chemostat, doubling time 3 h
[7] = wild type E. coli NCM3722, growth: C-lim chemostat, doubling time 6 h
[8] = wild type E. coli NCM3722, growth: C-lim chemostat, doubling time 12 h
[9] = wild type E. coli NCM3722, growth: N-lim chemostat, doubling time 6 h
[10] = wild type E. coli NCM3722, growth: N-lim chemostat, doubling time 12 h
[11] = wild type E. coli NCM3722, growth: P-lim chemostat, doubling time 6 h
[12] = wild type E. coli NCM3722, growth: P-lim chemostat, doubling time 12 h

| Sequence | total protein half-life in vivo [1] [h] | total protein half-life in vivo [2] [h] | total protein half-life in vivo [3] [h] | total protein half-life in vivo [4] [h] | total protein half-life in vivo [5] [h] | total protein half-life in vivo [6] [h] | total protein half-life in vivo [7] [h] | total protein half-life in vivo [8] [h] | total protein half-life in vivo [9] [h] | total protein half-life in vivo [10] [h] | total protein half-life in vivo [11] [h] | total protein half-life in vivo [12] [h] |
| --- | --- | --- | --- | --- | --- | --- | --- | --- | --- | --- | --- | --- |
| MSSKLVLVLNCGSSSLKFAIIDAVNGEEYLSGLAECFHLPEARIKWKMDGNKQEAALGAGAAHSEALNFIVNTILAQKPELSAQLTAIGHRIVHGGEKYTSSVVIDESVIQGIKDAASFAPLHNPAHLIGIEEALKSFPQLKDKNVAVFDTAFHQTMPEESYLYALPYNLYKEHGIRRYGAHGTSHFYVTQEAAKMLNKPVEELNIITCHLGNGGSVSAIRNGKCVDTSMGLTPLEGLVMGTRSGDIDPAIIFHLHDTLGMSVDAINKLLTKESGLLGLTEVTSDCRYVEDNYATKEDAKRAMDVYCHRLAKYIGAYTALMDGRLDAVVFTGGIGENAAMVRELSLGKLGVLGFEVDHERNLAARFGKSGFINKEGTRPAVVIPTNEELVIAQDASRLTA [P0A6A3] | 4.23 ± 0.13 | 6.03 ± 2.6 | 4.41 ± 0.054 | 4.89 ± 0.78 | 4.28 ± 0.21 | 3.25 ± 0.17 | 6.35 ± 0.1 | 12.1 ± 0.56 | 4.58 ± 0.21 | 8.13 ± 0.2 | 5.88 ± 0.24 | 13.1 ± 1.2 |
| MTHQLRSRDIIALGFMTFALFVGAGNIIFPPMVGLQAGEHVWTAAFGFLITAVGLPVLTVVALAKVGGGVDSLSTPIGKVAGVLLATVCYLAVGPLFATPRTATVSFEVGIAPLTGDSALPLFIYSLVYFAIVILVSLYPGKLLDTVGNFLAPLKIIALVILSVAAIVWPAGSISTATEAYQNAAFSNGFVNGYLTMDTLGAMVFGIVIVNAARSRGVTEARLLTRYTVWAGLMAGVGLTLLYLALFRLGSDSASLVDQSANGAAILHAYVQHTFGGGGSFLLAALIFIACLVTAVGLTCACAEFFAQYVPLSYRTLVFILGGFSMVVSNLGLSQLIQISVPVLTAIYPPCIALVVLSFTRSWWHNSSRVIAPPMFISLLFGILDGIKASAFSDILPSWAQRLPLAEQGLAWLMPTVVMVVLAIIWDRAAGRQVTSSAH [P0AD99] |  |  |  |  |  |  |  |  |  |  | 0.949 | 1.98 ± 0.53 |
| MPHIDIKCFPRELDEQQKAALAADITDVIIRHLNSKDSSISIALQQIQPESWQAIWDAEIAPQMEALIKKPGYSMNA |  |  |  |  |  |  |  |  |  |  | 2.92 |  |
| MEMLEEHRCFEGWQQRWRHDSSTLNCPMTFSIFLPPPRDHTPPPVLYWLSGLTCNDENFTTKAGAQRVAAELGIVLVMPDTSPRGEKVANDDGYDLGQGAGFYLNATQPPWATHYRMYDYLRDELPALVQSQFNVSDRCAISGHSMGGHGALIMALKNPGKYTSVSAFAPIVNPCSVPWGIKAFSSYLGEDKNAWLEWDSCALMYASNAQDAIPTLIDQGDNDQFLADQLQPAVLAEAARQKAWPMTLRIQPGYDHSYYFIASFIEDHLRFHAQYLLK | 5.79 ± 0.058 | 5.61 ± 0.89 |  | 6.09 ± 0.43 | 5.19 ± 0.2 | 3.5 ± 0.13 | 5.59 ± 0.15 | 13 ± 2.8 | 5.67 ± 0.38 | 8.798 ± 0.034 | 6.2 ± 0.11 | 11.9 ± 1.7 |
| MYDFNLVLLLLQQMCVFLVIAWLMSKTPLFIPLMQVTVRLPHKFLCYIVFSIFCIMGTWFGLHIDDSIANTRAIGAVMGGLLGGPVVGGLVGLTGGLHRYSMGGMTALSCMISTIVEGLLGGLVHSILIRRGRTDKVFNPITAGAVTFVAEMVQMLIILAIARPYEDAVRLVSNIAAPMMVTNTVGAALFMRILLDKRAMFEKYTSAFSATALKVAASTEGILRQGFNEVNSMKVAQVLYQELDIGAVAITDREKLLAFTGIGDDHHLPGKPISSTYTLKAIETGEVVYADGNEVPYRCSLHPQCKLGSTLVIPLRGENQRVMGTIKLYEAKNRLFSSINRTLGEGIAQLLSAQILAGQYERQKAMLTQSEIKLLHAQVNPHFLFNALNTIKAVIRRDSEQASQLVQYLSTFFRKNLKRPSEFVTLADEIEHVNAYLQIEKARFQSRLQVNIAIPQELSQQQLPAFTLQPIVENAIKHGTSQLLDTGRVAISARREGQHLMLEIEDNAGLYQPVTNASGLGMNLVDKRLRERFGDDYGISVACEPDSYTRITLRLPWRDEA [P0AD14] |  |  |  |  |  | 2.82 ± 0.28 | 5.37 ± 0.45 | 10.9 ± 0.79 |  |  | 6.05 ± 0.33 | 11.1 ± 1.1 |
| MESLLTLPLAGEARVRILQITDTHLFAQKHEALLGVNTWESYQAVLEAIRPHQHEFDLIVATGDLAQDQSSAAYQHFAEGIASFRAPCVWLPGNHDFQPAMYSALQDAGISPAKRVFIGEQWQILLLDSQVFGVPHGELSEFQLEWLERKLADAPERHTLLLLHHHPLPAGCSWLDQHSLRNAGELDTVLAKFPHVKYLLCGHIHQELDLDWNGRRLLATPSTCVQFKPHCSNFTLDTIAPGWRTLELHADGTLTTEVHRLADTRFQPDTASEGY [P0AEW4] | 5.15 ± 0.77 | 4.65 ± 0.26 | 4.6 ± 0.28 | 4.98 ± 0.096 | 4.34 ± 0.65 | 2.948 ± 0.017 | 5.4 ± 0.74 | 11.6 ± 1.3 | 4.56 ± 0.88 | 8.5 ± 0.45 | 4.435 ± 0.035 | 8.69 ± 0.43 |
| MTNSNRIKLTWISFLSYALTGALVIVTGMVMGNIADYFNLPVSSMSNTFTFLNAGILISIFLNAWLMEIVPLKTQLRFGFLLMVLAVAGLMFSHSLALFSAAMFILGVVSGITMSIGTFLVTQMYEGRQRGSRLLFTDSFFSMAGMIFPMIAAFLLARSIEWYWVYACIGLVYVAIFILTFGCEFPALGKHAPKTDAPVEKEKWGIGVLFLSVAALCYILGQLGFISWVPEYAKGLGMSLNDAGTLVSNFWMSYMVGMWAFSFILRFFDLQRILTVLAGLAAILMYVFNTGTPAHMAWSILALGFFSSAIYTTIITLGSQQTKVPSPKLVNFVLTCGTIGTMLTFVVTGPIVEHSGPQAALLTANGLYAVVFVMCFLLGFVSRHRQHNTLTSH | 5.5 | 5.55 | 5.855 ± 0.027 | 5.47 ± 0.58 | 5.72 ± 0.19 |  |  |  | 6.5 ± 0.71 |  | 6.42 ± 1.5 | 13.3 |
| MIDVLGPEKRRRRTTQEKIAIVQQSFEPGMTVSLVARQHGVAASQLFLWRKQYQEGSLTAVAAGEQVVPASELAAAMKQIKELQRLLGKKTMENELLKEAVEYGRAKKWIAHAPLLPGDGE [P0CF42] | 2.54 ± 0.27 |  |  |  |  | 0.121 |  | 1.26 | 0.716 | 1.37 |  |  |
| MLKVEMLSTGDEVLHGQIVDTNAAWLADFFFHQGLPLSRRNTVGDNLDDLVTILRERSQHADVLIVNGGLGPTSDDLSALAAATAKGEGLVLHEAWLKEMERYFHERGRVMAPSNRKQAELPASAEFINNPVGTACGFAVQLNRCLMFFTPGVPSEFKVMVEHEILPRLRERFSLPQPPVCLRLTTFGRSESDLAQSLDTLQLPPGVTMGYRSSMPIIELKLTGPASEQQAMEKLWLDVKRVAGQSVIFEGTEGLPAQISRELQNRQFSLTLSEQFTGGLLALQLSRAGAPLLACEVVPSQEETLAQTAHWITERRANHFAGLALAVSGFENEHLNFALATPDGTFALRVRFSTTRYSLAIRQEVCAMMALNMLRRWLNGQDIASEHGWIEVVESMTLSV | 4.98 ± 0.18 | 4.36 ± 0.044 | 4.01 ± 0.17 | 4.79 ± 0.35 | 4.32 ± 0.093 | 3.098 ± 0.027 | 5.27 ± 0.91 | 9.19 ± 2.1 | 3.94 ± 0.2 | 6.9 ± 0.57 | 6.25 ± 0.51 | 11.2 ± 0.81 |
